Tests used:
[1] = target: IA^b protein (membrane-bound, without covalent peptide); assay: inferred from IL-2 production by BO.97.10 with M12.C3 cells and added cOVA peptide
[2] = target: IA^b protein (membrane-bound, without covalent peptide); assay: inferred from IL-2 production by BO.97.10 with fibroblasts and added cOVA peptide
[3] = target: IA^b -Ea protein (membrane-bound IA^b with IEα^d peptide (56-73) joined by a linker to IAβ^b) (murine); assay: inferred from IL-2 production by BO.97.10 with M12.C3 cells and added cOVA peptide
[4] = target: IA^b -Ea protein bound by added cOVA peptide (murine; chicken) (UniProt P01012)
[5] = target: IA^b -Ea protein bound by added cOVA peptide (murine; chicken) (UniProt P01012); remark: listed apart in the source
[6] = target: IE^kd -MCC protein (soluble IE^kd αβ dimer with MCC peptide (91-103) joined by a linker to IEβ^k) (murine)
[7] = target: IA^d -OVA protein (soluble IA^d αβ dimer with cOVA peptide (327-339) joined by a linker to IAβ^d) (murine)

IEα^d Peptide (56-73)
percent of the IA^b -Ea protein with IEα^d bound to the binding site [1]: 90% | percent of the IA^b -Ea protein bound by IEα^d peptide [2]: 90%

cOVA Peptide (327-339) (from UniProt P01012)
percent of the IA^b -Ea protein bound by cOVA peptide [3]: 10%

BO.97.10 T hybridoma cells (TCR)
IL-2 production in the presence of cOVA peptide (M12.C3 cells) (fold less IL-2 production) [4]: 10 | IL-2 production in the presence of cOVA peptide (fibroblasts) (fold less IL-2 production) [5]: 10

thrombin (enzyme)
digestion of the complex as assessed by SDS-PAGE [6]: > 80% | digestion of the complex as assessed by SDS-PAGE [7]: > 80%

Source: patent publication US5820866
